Test results taken from patent publication US20230374534A1 (INDUSTRY ACADEMIC COOPERATION FOUNDATION GYEONGSANG …, published 2023).

How the values were obtained:
[1] = target: T1, CBF1-Myc (from CBF1-Myc^OE Arabidopsis plants) (Arabidopsis thaliana, UniProt P93835 1-213); assay: anti-Myc immunoprecipitation from CBF1-Myc^OE plants (4 °C, 6 h), then MALDI-TOF/TOF mass spectrometry
T1 construct: Overexpressed in Arabidopsis under the CaMV 35S promoter; The tag is placed C-terminal because of the name CBF1-Myc; also called CBF-Myc; CBFs-Myc; not shown: Myc tag
Description: To identify the interacting partners of CBF1 in Arabidopsis, total proteins (100 mg) were extracted from 2-week-old CBF1-Myc^OE seedlings exposed to 4° C. for 6 h, and immunoprecipitated using an anti-Myc agarose (Sigma-Aldrich, St. Louis, MO, USA). The CBF1-My c-interacting proteins were washed three times at 4° C. with a buffer containing 50 mM Tris-HCl (pH 7.5), 150 mM NaCl, 1 mM EDTA, 1 mM DTT, and 0.1% NP40. The purified proteins were mixed with SDS-PAGE loading dye, heated at 90° C. for 5 min, and separated by SDS-PAGE. Proteins were identified by matrix assisted laser desorption/ionization-time of flight (MALDI-TOF)/TOF-mass spectrometry.

[2] = target: T2, YC-CBF1 (CBF1 fused to the C-terminal fragment of YFP) (Arabidopsis thaliana, UniProt P93835 1-213); assay: BiFC in Nicotiana benthamiana leaves at 4 °C (FIG. 6D)
T2 construct: BiFC construct expressed in Nicotiana benthamiana leaves; also called YC-CBFs; not shown: C-terminal fragment of YFP (YC)
Description: Interaction between Trx-h2 and CBFs under specific conditions was analyzed using the BiFC assay. Trx-h2 and CBFs were cloned individually into the gateway BiFC-binary vector, pDONR221, to generate pDONR221: Trx-h2 and pDONR221: CBF plasmids, respectively. The Trx-h2-YN plasmid was generated by fusing Trx-h2 with the N-terminal fragment of YFP (YN), while the YC-CBF plasmids were constructed by fusing each of the three CBFs with the C-terminal fragment of YFP (YC). These plasmids were introduced into A. tumefaciens strain GV3101, and the transformed cells were used to infiltrate the leaves of 4-week-old N. benthamiana plants. These plants were incubated at 26° C. for 2 days and then exposed to 4° C. for 6 h. Fluorescence signals generated by YFP were analyzed under a confocal microscope using the FV10-ASW 3.1 software.

T2 sequence (P93835 whole entry, the tested form may be a part): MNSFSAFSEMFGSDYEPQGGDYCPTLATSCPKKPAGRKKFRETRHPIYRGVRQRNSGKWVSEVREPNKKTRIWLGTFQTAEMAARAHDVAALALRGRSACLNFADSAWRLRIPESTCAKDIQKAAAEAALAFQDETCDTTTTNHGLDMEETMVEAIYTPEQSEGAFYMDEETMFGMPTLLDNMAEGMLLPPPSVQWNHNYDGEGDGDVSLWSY
T1 sequence (P93835 whole entry): as the sequence (P93835 whole entry, the tested form may be a part) above

B1: Trx-h2, endogenous protein in Arabidopsis plants (enzyme)
chain: GGALSTVFGSGEDATAAGTESEPSRVLKFSSSARWQLHFNEIKESNKLLVVDFSASWCGPCRMIEPAIHAMADKFNDVDFVKLDVDELPDVAKEFNVTAMPTFVLVKRGKEIERIIGAKKDELEKKVSKLRA
modifications: myristoylated at Gly2 at 22 °C; demyristoylated at 4 °C
notes: Native Trx-h2 that co-precipitated with CBF-Myc from plant extracts (IP/mass spectrometry and Co-IP); also called thioredoxin h2
Q: Does B1 bind [1]?
A: binds

B2: Trx-h3 (control) in the BiFC assay (enzyme, Arabidopsis, UniProt Q42403 2-118, looked up)
chain: AAEGEVIACHTVEDWTEKLKAANESKKLIVIDFTATWCPPCRFIAPVFADLAKKHLDVVFFKVDVDELNTVAEEFKVQAMPTFIFMKEGEIKETVVGAAKEEIIANLEKHKTVVAAA
notes: BiFC control; The YFP fragment fused to it is not described
Q: Does B2 bind [2]?
A: no binding
